This is an account of results in the domain aggregation screens of Martell et al. (2025).

A short description of the series: soluble fraction after stress (log2 fold change); higher = more stays soluble; pooled small domains, quantitative proteomics. The note with it: stress: 75 degC.
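Further: 20 min heating vs room temperature control held 20 min.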

Take “HMLQVRRILQLLADGYSKRQISQQTAVSRNTIDSYEDRFHLTGKSYQELLSMEDGELSGIVYP”: the “soluble fraction (log2)” value was -1.11.
For the sequence “HMLQVSDENFVVELVQKVLLDNPSSVQEYKNGKESVLQFLIGQAMKASKGTANPQIVKEIMLKLL”, the “soluble fraction (log2)” value was -0.68.
On to “HMLQYSQEIEEAQKILQNLGLYKGEIDGINGVNTKSAIKEFQRKSGLIIDGILGPNTTSALSKGAESYITV”, for which the “soluble fraction (log2)” value worked out at 0.0721.
For “HMLRISEEVWALVEKTLREDWSPEQVSGKLKASGISVSHERIYQHIYADKRVGGTLWTHLRR”, the “soluble fraction (log2)” value was -2.47.
Take “HMLRLLEIIAGNEVSKEINSQVIKYYKALKNKKIEEINNLTPSYNKLIISFDLKKKNFREMKKIIEDISIN”: the “soluble fraction (log2)” value is -0.136.
On to “HMLRPEEMIYHEMLDAILDRRLEPGMKLVEEDLAKTFGVSRARIRATFLQLAHDKLINLVPNRGAFVAEP”, for which the “soluble fraction (log2)” value is -2.
For the sequence “HMLRRNQVQSQVIPRENGSYVVELQLRDDVDSILRLELTAATEAMARDLADRFRQDPEGVYTRLLSALY”, the “soluble fraction (log2)” value was -2.22.
For “HMLRTEYLTVNYAKASEVAELVTASGFLSSRGSITVDERTNTLLLQDTATNIDEVRFMLEQLD”, the “soluble fraction (log2)” value was -0.366.
On to “HMLSADLLDKIQRIDSLEQQGKYAQAEKEARALLSDPSITPSERASVQNILSSIARKKAAQAQ”, for which the “soluble fraction (log2)” value was -0.064.
Then “HMLSAGTTEQRLAMLQYQWEKQSETYSALGPNNGVVTLGQIRNTMAKIAELAGFKDAAQFWMPVPMDYDV”, with -0.217.
“HMLSAPMPGTVLEVHVKEGQRVREGQTLVVMEAMKMEHRVQAPRAGVVTKLHYSEGDRVDVGAILVEIG”: the “soluble fraction (log2)” value was -1.34.
Then “HMLSAQEIPVEDIATRDFVLAEDVVSAKKVLLLPKGVDLSWFGSAKKRLVQRLKSEGVTHIRVFA”, with -2.06; and “HMLSFSEAERAVLSLLNRRPDLSAKALASELAVSARTVERYLQSLQQKGKLLRVGAKKGGYWQV”, with -0.842; and “HMLSGNLTADAHVHRGLQALSDGRNEDALVDFTKATEVQADFAEAWNKRATVNYLLGRYDAAVLDIQKTLE”, with 0.257.
As to “HMLSLDDAAFERYDLTMREREVLLLLLNRLTYEEIAERLFISTNTVKTHVGNVYKKTGVSSRKELVSK”, the “soluble fraction (log2)” value is -1.26.
Take “HMLSLGQQIRNHVLSRIESGEWPEGSRIPSEAKLVELLGASRMTIHIALRDLSAEGVLLRKQGAGTFVAPR”: the “soluble fraction (log2)” value is -2.68.
Turning to “HMLSRKEVFTVSQKDIEKNPIGAADKFFDGHVGIHKLLVVDEEDRLRGLFTLSDIERINDEQ”, the “soluble fraction (log2)” value is 0.179.
Then “HMLSRTYDSSGPDVKIRGTAQTVADKYMSLARDAQSSGDRVMAENYLQHAEHYNRIIAAAQAQ”, with 0.34.
“HMLSSEQQQKLDSLSRKELEVAELVSHGATNKMIARTMNITERTVKAHLTAIFQKMNIPDRLSLAIFFRDL”: the “soluble fraction (log2)” value is -2.79.
Then “HMLSSNEIKEIFALFDKSNRGQVATSELGTLVRALNLNPTETEITDMQSKVDPKGQGSFTLDVLEKVVQD”, with 0.394; and “HMLSVNREQVEQSLKQEWGFDYDKNLRAAQRAIDVYGDDDLKLLLNGPTGNDPAIVKLFARLGGEVTEE”, with 0.132.
In the case of “HMLSYIELTVDNTSKASYIMTDKMKINNFKIIGNNTIRVYENKVSPQDISRTLSMNNVSIEALGRKS”, the “soluble fraction (log2)” value is -1.29.
Regarding “HMLSYNINEESKSSIMNVNVLKNNFASIDVEKLQNIIFTTFKKYNYYLNDFSSMNLLLHLLIIVDREL”, the “soluble fraction (log2)” value was found to be 0.418.
Regarding “HMLTEKEEEVMQILWDNGPLFVREILEFYPDPKPHYNTVSTVIRVLEEKNFASHKAYGNTYQYFP”, the “soluble fraction (log2)” value turned out to be 0.315.
Take “HMLTLEDMTRINSIISPRIKKGQSLYHIAKNNGDELNISESTLRRLVMTGEMDAGIIDLPQAVK”: the “soluble fraction (log2)” value was -0.00636.
Then “HMLTLTNREKQVLVYIAKGHQVAQIAYELKLSGHTINGYIKTIYQKLHISSRAEAALLAQQYGL”, with -3.31; and “HMLTRQNFHGIKLPTIHEYIDLLNSRVNANIDKTNNWQSSVSHLRTYLNSHNINAVSKESINNYIDERLN”, with -1.4; and “HMLTRRQSEVLDFIRQFAESESMPPTLHEIAKGMGFSSDNAARDHVRALARKGAIDLVGGTSRGIRLR”, with -1.22.
As to “HMLTRSASREELDQLLKRLRQNLKQKNFFWPPDKEKSLVLYLENLFSKFPLNSSDIRFLHGIIRTLSEK”, the “soluble fraction (log2)” value was -0.188.
“HMLVGKSVIMKTNESSSGMIAGKVNYWENIDGKIYLGINGKLYDIADVDTVLDNDYYDKLVN”: the “soluble fraction (log2)” value is -0.516.
Turning to “HMLVKKYTEEETGRQAELSKQLAELSKAYYNTGNSMVDDAVFDKLRDELSSLEKESGFAYDISPNVS”, the “soluble fraction (log2)” value was -0.69.
In the case of “HMLVNNSTIETVIDFANVKFGMELTKDQVSEQLRNLSFSQTLKLINSMKADDNDAFSEIIDL”, the “soluble fraction (log2)” value is -0.593.
As to “HMLVSFGDHLKRYIYERAGIEEPFGEVPQEIYRDIAVDSFRETYTPKSMNPTSTKLPALVNNWLIQ”, the “soluble fraction (log2)” value was -0.843.
Then “HMLVSVSNYLGQNVDTVKSDLEALGLVVKLKEQQTDRESENGAVLEQSIEGGSKVSAGTPITLTYGK”, with 0.945; and “HMLWTHIALPVRSLDDTMAFYDKYTTLENIHERQDPETNMRSVWLANPGDKTEQAARFVLVLI”, with -0.119; and “HMMTDAEKTFIFFSHLSSVEDHIAYGDKQFYMSLFWQHENKRELSSSQLYHLERLYNKYSMEEIEKKEEFS”, with -1.35.
“HMMTDEEFLRIAGYMKQRYGIDLGQKKVIMNGRLENHIKSGGWSSFHAFMNDLEKDSSGKLEKELVNLLTT”: the “soluble fraction (log2)” value is -0.239.
On to “HMMTLEESYKLLQVSHNASDIEITKAFKKLALLYHPDKNPSNIDWANKAMASINVAYNTIITHRFKEK”, for which the “soluble fraction (log2)” value was -1.38.
In the case of “HMNAAYDEELDFIFSLSEKGKWEEAEAEIGLLLQKHPEDATLQRIGEWVTTQKILLRQQAVEDRIRS”, the “soluble fraction (log2)” value was -0.375.
Then “HMNAEWMFDARKIPGLVMNYLRRIAVRAIEEKHYSPELVADLFGIDRTSIYDWLRKYRQQGEEALDTRKA”, with -1.28.
For the sequence “HMNAFEIYPNPASNLIRIDAEFTVAKIFSQTGNLIQTSTTKEIDVYNLANGIYFVKLDDSPSMVKFVIN”, the “soluble fraction (log2)” value is -0.795.
Consider “HMNALTEAESKLLERMNKAGIHAEITTKKAAGILQRSENGARTVLNSLVKKGYLTVETNKAPYIYHLH”, for which the “soluble fraction (log2)” value is -0.359.
Then “HMNAMFEKVLAAVMGFIGVSAFAKNADGKSEMTSDQEKRLTDKWGSKFVEEFKNDLLEYEKNGNAAEDAV”, with -0.944; and “HMNAPKKPLSAYFLFSQEERLKVKAENPDYSITEVAKELGKRWATLNPDIKTVYEQRYQDARRIYETEMNT”, with -0.372; and “HMNAQLTTIPDLDGMNMRAATAMLSSLGLEVKRIGSGTVFAQFPKAGAAMRPGSMVTIRGKAKSL”, with -0.777.
As to “HMNATLSSSYPTSVVTDGEIYKLTFGLNGKYNGQEQITVKPHGDSNIYDSGGLRAYQNTQSNNVVTLN”, the “soluble fraction (log2)” value was -0.0686.
In the case of “HMNATQLSNTQKQIRTQLLERLSNNPLTVKQLADRMFVPIDTILKEITALIQEQKIIEDKGGKLQIN”, the “soluble fraction (log2)” value is -0.135.
Consider “HMNAVDLLSPQEQRIFELIGEGMSNRQIADVMYLAEKTVKNYVSNVLMKLGMERRTEAAALAARLDERQK”, for which the “soluble fraction (log2)” value was -0.179.
With “HMNAVITTQKAKQIALAHAGLSEADVNYVKAELENDDGVQVYDIEFYSKNIEYDYDINAVTGEIMSFDHDI”, the “soluble fraction (log2)” value was -0.251.
Turning to “HMNAVYPNPFVSEIYIGENNRSVEIYNLNGGLVYGMSQPSSRIDVSGLAAGSYILIKKDSSGHISSHKIMK”, the “soluble fraction (log2)” value is -1.63.
Then “HMNDAARQTTDILQHVRSSGSISFRDLWRLFMPFMAYRDFDAAVKSLVAAGHIATTENERKELHLIAF”, with -1.14; and “HMNDEFYAVVRESYAGYALVKPLDEDVGYDILSVSVKNLKVGDIIRLKVKNIKEIYPPEAEVLEVEVLQ”, with -0.316.
In the case of “HMNDEQFAIAKNDLLLSLYDGKEVNNSAAEYIIAWESLEKSPSDYISSQLKNTAESIIKISFD”, the “soluble fraction (log2)” value was 0.258.
With “HMNDFVTVPDLQGIFYSEAIKKIDKMGLKEGSIQFVNQDKFLPNTVLNQNPKEGTKVSQDSPINLIIS”, the “soluble fraction (log2)” value was -0.012.
Consider “HMNDILETISNQIRDLRVSKKITQQELAERTNLSVPYISQIENGHRNISLETFIKIVDALDIPLSDFFLP”, for which the “soluble fraction (log2)” value was -1.95.
Take “HMNDITVNVEDSKLIVTSNNPEKLPLYIMDIQGHILDKSEITAGTYSFPISDRGTYIVRIGENVYKVI”: the “soluble fraction (log2)” value was -0.166.
In the case of “HMNDLKVGELAKRGNVTAETVRHYTREGLLSPTRHPDNGYQLFSATDLERLHFIQRARKLGFSVAEIRDIL”, the “soluble fraction (log2)” value was -0.915.
Then “HMNDLVTWDRYKIELGDTLSEIAQKLVTRVDILKTVNQIQGTRIIAGNSLMVPRTTDTNVLTYL”, with 0.00348.
For “HMNDPIGDMLTRIRNAQMRGKSTVSTPASKLRAWVLEVLASEGYIRGFERATTDNGQGELVISLD”, the “soluble fraction (log2)” value was -0.682.
Consider “HMNDREAAYEDLPDELVRVGQKVFIKSLETEGVIVQPPNKKGEVRVRSGNISTNVKRSDLGLPIEKP”, for which the “soluble fraction (log2)” value turned out to be 0.0745.
Turning to “HMNDRRQDVFELLKSSERPVSAADLAHKFGVTRQVIVADIALLRASDIDIVSTNRGYILKANL”, the “soluble fraction (log2)” value is -1.83.
On to “HMNDYNLTDREKEVLTFLFQGLEYKEIGMKMSVSPNTIRNHISNIYKKLHVTSKTQAIRVFLNN”, for which the “soluble fraction (log2)” value was -4.09.
As to “HMNEAMIMIDLKGKSRDEAVKELDELNLKYRFTGNGIVKDQKPKAGEEINSDTVVEVELSEIK”, the “soluble fraction (log2)” value was 0.12.
Consider “HMNEDYFTIAGYASLRGVNIDTSKANMLGRKATKLSREYGYDIGKVTDTRFGKVNSYHLDILKSIFEF”, for which the “soluble fraction (log2)” value is -0.575.
Then “HMNEFSYLSELGSEKGDLIKGLQLVQSREGYVSDDAIRAISKHFSIAEAEVEGVLTFYAQFK”, with -1.28.
Then “HMNEIESFSNTKNPFSLTFKTSKDSSYKVEASSNLKKWTTLSQIKGTGNPITFTESRRILFRKQYYRVTLS”, with -0.176; and “HMNEISFYPNPAKESLTVKGLSEITSYSISDINGKLIQYGTTFDRINLEKLTKGFYFLTIGNTISKKLIV”, with -0.311; and “HMNEISLKEITIEEDHPWRDKKIKELDLKEHILVAMIRRKDQDIIPNGETKIYKDDILVIYD”, with 0.00328.
“HMNEKFNVYPIPVYNNLNITGLSKPVTYLISSIDGKTIKNGVFQESIDVSDLKSGLYFLQVETKDPVKFIK”: the “soluble fraction (log2)” value was -0.991.
Regarding “HMNEKLNEYLNQVKAYLNTSDNKEDIIKELEAVVLEKAEKKYGQITDESISKILSEFGSPAEVAKEYS”, the “soluble fraction (log2)” value was 0.218.
